Assay results reported in IntAct's records for PubMed 26744420.

B1: PAX-interacting protein 1 (Mus musculus), Q6NZQ4 (parent)
chain: MSEPAPEVPEELFREVKYYAVGDIDPQVIQLLKAGKAKEVSYNALASHIISEDGDNPEVGEAREVFDLPVVKPSWVTLSVQCGALLPVNGFSPESCQIFFGLTACLSQVSSEDRSALWALVTFHGGSCQLNLNKKCTHLIVPEPKGEKYERAVKRTSIKIVTPDWVLDCVSEKRRKDEAFYHPRLIIYEEEEEEEEEGDNEEQDSQNEGSTEKSSVASSAVASPAEQPCSPKPRAEVSKGELMFDDSSDSSPEKQERSLNWAPAEAPPLNTAQRRLPQGKGPGLINLCANVPPVPGDILPPDMRGNLMAPGQNLQNSERSEILGTWSPAVRTLRNITNNADIQQINRPSNVAHILQSLSAPTKSLEQQVARGQQGHPNASAVLFGQAKGAPETHVLQQHHPPQQPQQQHPALHLQPQIMQLQQQQQQQQQQQQQPQPYPQPPSHQFPQQVHQHQFSQQQLQFPQQPLHPQQQLHRPQQQLQPFQQQHALQQQLHQLQQQQLQHHQLAQLQQQQQQQHNLLQQQQQQQQLQRLQQQQQMQNQAAHLSQASQALQHQVLPQQPLQLSLQPPPQQQQQQQLFGHDPAVEIPEESFLLGCVFAIADYPEQMSDKQLLATWKRIIQAHGGTVDPTFTSRCTHLLCASQVSSMYTQALRERKRCVTAHWLNTVLKKKKLMPPHRALHFPVAFPPGGKPCSQHIISVTGFVDNDRDDLKLMAYLAGAKYTGYLCRSNTVLICKEPSGLKYEKAKEWRIPCVNAQWLGDILLGNFEALRQVQYSRYTAFNMPDPFVPTPHLVLGLLDAWRTPVKVTAELLMGVRLPPKLKPNEVANIQPSSKRARIEDLPPPTKKLTPELTPLVLFTGFEPVQVQQYIKKLYILGGEVAECTKKCTHLIASKVTRTVKFLTAISVVKHIVTPDWLEECFKRQTFIDEQNYILRDAEAEVLFSFSLEESLKRAHVSPLFKTKYFYITPGICPSLATMKAIVECAGGKVLAKQPSFRKLMEHKQNKSLSEIILISCENDLHLCREYFARGIDVHNAEFVLTGVLTQTLDYESYKFN

Variants of: B1
Conditions: with pgr1a_mouse Pagr1a

| Variant | effect of a mutation on the interaction |
| --- | --- |
| W165R | disrupting interaction |
